# Laboratory results from US20210380703A1.
# Residue numbers refer to the chain shown, from its start.
# B1: 374_A05 (antibody, V domains shown)
# VH: EVQLLESGGGLVQPGGSLRLSCAASGFTFSDYGMNWVRQAPGKGLEWVANINYNGGYKGYADSVKGRFTISRDNSKNTLYLQMNSLRAEDTAVYYCARGATWHDTHLDYWGQGTLVTVSS
# VL: DIQMTQSPSSLSASVGDRVTITCRASQSIVRYLNWYQQKPGKAPKLVIYAATSLASGVPSRFSGSGSGTDFTLTISSLQPEDFATYYCQQSYELPLTFGGGTKVEIK
# B2: 365_D09 (antibody, V domains shown)
# VH: B1 VH with D31S, N35H, A49S, N50G, G55S, K58T, G59S, G99S, T101N, H106A
# VL: B1 VL with V30L, R31S, V47L, L54R, Y92D, L94S
# B3: 365_A03 (antibody, V domains shown)
# VH: B1 VH with D31S, G33S, N50G, G55S, G99S, T101N, H106A
# VL: B1 VL with V30L, R31S, A51V, L54R, E93D, L94S
# B4: 365_E09 (antibody, V domains shown)
# VH: B1 VH with D31S, N35H, N50S, G55S, G59S, G99S, T101N, H106A
# VL: B1 VL with V30L, R31T, L33V, L54R, Y92D, E93D, L94S
# B5: 365_B06 (antibody, V domains shown)
# VH: B1 VH with S30D, D31S, N35H, A49S, G59S, G99S, T101N, H106A
# VL: B1 VL with V30L, R31T, L33V, V47L, A51T, E93D
# B6: 365_C01 (antibody, V domains shown)
# VH: B1 VH with S30D, D31S, A49S, N50S, G55S, G59S, G99S, T101N
# VL: B1 VL with R31S, A51V, L54R, L94S
# B7: 365_B11 (antibody, V domains shown)
# VH: B1 VH with D31S, N35H, N50G, K58T, G59S, G99S, T101N, H106A
# VL: B1 VL with V30I, R31S, A51T, L54R, A55H, E93D, L94S
# B8: 365_G11 (antibody, V domains shown)
# VH: B1 VH with D31S, K58T, G99S, T101N, H106A
# VL: B1 VL with V30I, R31T, L33V, V47L, A51V, L54R, A55H, E93N, L94S
# B9: 374_G05 (antibody, V domains shown)
# VH: B1 VH with D31S, G33S, A49S, G55S
# VL: B1 VL with V30I, R31S, V47L, L54R, E93D
# B10: 365_G01 (antibody, V domains shown)
# VH: B1 VH with S30D, D31S, N50G, G55S, G59S, G99S, T101N, H106A
# VL: B1 VL with V30L, R31T, L33V, V47L, A51T, L54R, E93D, L94S
# B11: 365_F06 (antibody, V domains shown)
# VH: B1 VH with D31S, N50G, G55S, G59S, G99S, T101N, H106A
# VL: B1 VL with V30L, R31S, L33V, V47L, L54R, Y92D, E93N
# B12: 374_D09 (antibody, V domains shown)
# VH: B1 VH with S30D, D31S
# VL: B1 VL with V30I, R31S, L33V, V47L, E93D, L94T
# B13: 375_H08 (antibody, V domains shown)
# VH: B1 VH with D31S, G33S, A49S, N50G, K58T, G59S
# VL: B1 VL with V30L, R31T, V47L, E93D, L94S
# B14: 375_B03 (antibody, V domains shown)
# VH: B1 VH with D31S, G33S, N50G, K58T, G59S
# VL: B1 VL with V30L, R31T, V47L, L54R, E93D, L94S
# B15: 374_H05 (antibody, V domains shown)
# VH: B1 VH with D31S, G33S, N50G, K58T, G59S
# VL: B1 VL with V30L, R31S, L33V, L54R, E93D, L94N
# B16: 365_F01 (antibody, V domains shown)
# VH: B1 VH with S30D, D31S, G33S, A49S, N50G, G55S, G99S, T101N
# VL: B1 VL with R31S
# B17: 375_A03 (antibody, V domains shown)
# VH: B1 VH with S30D, D31S, G33S, N50G, K58T, G59S
# VL: B1 VL with V30L, R31T, V47L, L54R, A55H, E93D, L94N
# B18: 365_C10 (antibody, V domains shown)
# VH: B1 VH with D31S, N35H, N50S, K58T, G59S, G99S, T101N, H106A
# VL: B1 VL with V30L, R31S, L33V, V47L, L94S
# B19: 374_D04 (antibody, V domains shown)
# VH: B1 VH with D31S, G33S, N50G, K58T, G59S
# VL: B1 VL with V30L, R31S, L54R, A55H, E93D, L94T
# B20: 365_B01 (antibody, V domains shown)
# VH: B1 VH with S30D, D31S, N35H, N50S, G55S, K58T, G59S, G99S, T101N, H106A
# VL: B1 VL with V30S, R31S, L33V, L54R, L94S
# B21: 365_A11 (antibody, V domains shown)
# VH: B1 VH with S30D, A49S, N50G, G55S, K58T, G59S, G99S, T101N, H106A
# VL: B1 VL with V30L, R31S, L94S
# B22: 376_A07 (antibody, V domains shown)
# VH: B1 VH with D31S, G33S, A49S, N50G, G59S
# VL: B1 VL with V30L, R31T, V47L, L54R, E93D, L94S
# B23: 376_A02 (antibody, V domains shown)
# VH: B1 VH with D31S, G33S, N50G, G59S
# VL: B1 VL with V30L, R31S, V47L, L54R, E93D
# B24: 365_E01 (antibody, V domains shown)
# VH: B1 VH with G33S, A49S, N50G, G55S, G99S, T101N, H106A
# VL: B1 VL with V30I, R31S, V47L, L54R, E93D, L94S
# B25: 375_C11 (antibody, V domains shown)
# VH: B1 VH with D31S, G33S, A49S, N50S, K58T, G59S
# VL: B1 VL with V30L, R31S, L33V, V47L, L54R, A55H, E93D, L94T
# B26: 365_E05 (antibody, V domains shown)
# VH: B1 VH with D31S, N35H, N50G, K58T, G59S, G99S, T101N, H106A
# VL: B1 VL with R31S, L33V, V47L, E93D, L94N
# B27: 375_F10 (antibody, V domains shown)
# VH: B1 VH with D31S, G33S, A49S, N50G, K58T
# VL: B1 VL with V30L, R31T, L54R, E93D, L94T
# B28: 365_B07 (antibody, V domains shown)
# VH: B1 VH with D31S, N35H, N50S, G55S, K58T, G59S, G99S, T101N, H106A
# VL: B1 VL with V30L, R31T, V47L, L54R, L94N
# B29: 365_C11 (antibody, V domains shown)
# VH: B1 VH with D31S, G33S, N50G, G59S, G99S, T101N
# VL: B1 VL with V30I, R31T, A51V, L54R, E93S
# B30: 365_D12 (antibody, V domains shown)
# VH: B1 VH with S30D, D31S, A49S, K58T, G99S, T101N, H106A
# VL: B1 VL with R31T, L54R, E93D, L94T
# B31: 365_F12 (antibody, V domains shown)
# VH: B1 VH with G33S, A49S, N50G, K58T, G59S, G99S, T101N
# VL: B1 VL with V30L, R31T, L33V, L54R, A55H, L94T
# B32: 365_C12 (antibody, V domains shown)
# VH: B1 VH with D31S, N50G, G55S, G59S, G99S, T101N, H106A
# VL: B1 VL with R31S, L33V, A51V, E93D, L94T
# B33: 365_E07 (antibody, V domains shown)
# VH: EVQLLESGGGLVQPGGSLRLSCAASGFTFDSYGMHWVRQAPGKGLEWVSGINYNSGYTSYADSVKGRFTISRDNSKNTLYLQMNSLRAEDTAVYYCAKSANWHDTHLDYWGQGTLVTVSS
# VL: B1 VL with V30L, R31S, V47L, L54R, E93D, L94N
# B34: 365_A12 (antibody, V domains shown)
# VH: B33 VH with D30S, S49A, S55G
# VL: B1 VL with V30L, R31T, L33V, V47L, L54R, A55H, L94N
# Biological target: Human Fc (human)
# Test: ELISA; negative control
row,Binder,optical density [OD]
1,B1,0.159
2,B2,0.302
3,B3,0.342
4,B4,0.322
5,B5,0.281
6,B6,0.376
7,B7,0.305
8,B8,0.278
9,B9,0.158
10,B10,0.39
11,B11,0.329
12,B12,0.171
13,B13,0.204
14,B14,0.209
15,B15,0.257
16,B16,0.341
17,B17,0.203

row,Binder,optical density [OD]
1,B18,0.397
2,B19,0.179
3,B20,0.445
4,B21,0.299
5,B22,0.221
6,B23,0.22
7,B24,0.363
8,B25,0.199
9,B26,0.379
10,B27,0.21
11,B28,0.269
12,B29,0.296
13,B30,0.34
14,B31,0.411
15,B32,0.332
16,B33,0.302
17,B34,0.422
